Experiment [1] addresses T1, murine tissue factor from murine brain extracts (murine, UniProt P20352 29-294).
T1 sequence (looked up): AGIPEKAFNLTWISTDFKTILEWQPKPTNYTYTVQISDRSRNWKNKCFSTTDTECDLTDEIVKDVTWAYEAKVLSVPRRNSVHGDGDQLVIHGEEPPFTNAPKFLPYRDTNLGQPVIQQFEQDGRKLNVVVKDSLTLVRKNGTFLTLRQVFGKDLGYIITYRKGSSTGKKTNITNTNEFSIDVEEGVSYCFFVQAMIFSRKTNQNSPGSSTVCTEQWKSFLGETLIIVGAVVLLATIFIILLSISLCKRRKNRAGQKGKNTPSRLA
Put plainly: cell-based or functional assay.

Experiment [2] addresses T2, murine tissue factor on B6F10 melanoma cells (murine, UniProt P20352 29-294).
T2 construct: whole, on cells; also called cell-associated mTF
T2 sequence (looked up): T1 sequence (looked up)
Kind of experiment: flow cytometry (FACS) on B6F10 melanoma cells expressing mTF. Background: Flow cytometry measures light scatter and fluorescence of single cells or particles in a stream.

The EC50 is the concentration at which the effect is half-maximal. Low values mean a more potent agent, high ones a less potent agent.

B1: PHD103 Fab (Fab, V domains shown)
VH: QVQLVQSGAEVKKPGESLKISCKGSGYSFSNSWIAWVRQMPGKGLEWMGGIIGPGHSYTKYSPSFQGQVTISADKSISTAYLQWSSLKASDTAMYYCARINMGYFDYWGQGTLVTVSS
VL: DIELTQPPSVSVAPGQTARISCSGDSLGLKKFVSWYQQKPGQAPVLVIYDDSNRPSGIPERFSGSNSGNTATLTISGTQAEDEADYYCGTYDQTIGHDVVFGGGTKLTVLG
For B1, the “EC50 Conc. (ug/ml) for human plasma (inhibition of fibrin clot formation, murine brain extracts as source of mTF)” value in experiment [1] is 63.3 µg/mL.

B2: PHD104 Fab (Fab, V domains shown)
VH: QVQLVQSGAEVKKPGESLKISCKGSYSFTSNWIGWVRQMPGKGLEWMGWIYPSDSMTRYSPSFQGQVTISADKSISTAYLQWSSLKASDTAMYYCARYLFGLFDNWGQGTLVTVSS
VL: DIELTQPPSVSVAPGQTARISCSGDNLGSYYVSWYQQKPGQAPVLVIYNDNNRPSGIPERFSGSNSGNTATLTISGTQAEDEADYYCATYDSSTDVFGGGTKLTVLG
As for B2, the “EC50 Conc. (ug/ml) for human plasma (inhibition of fibrin clot formation, murine brain extracts as source of mTF)” value in experiment [1] was 23.8 µg/mL.

B3: PHD127 Fab (Fab, V domains shown)
VH: QVQLVQSGAEVKKPGESLKISCKGSYSFTNSWISWVRQMPGKGLEWMGIIDPDDSYTSYSPSFQGQVTISADKSISTAYLQWSSLKASDTAMYYCARGAGYGRMFGDVWGQGTLVTVSS
VL: DIELTQPPSVSVAPGQTARISCSGDNLGSYYASWYQQKPGQAPVLVIYQDDNRPSGIPERFSGSNSGNTATLTISGTQAEDEADYYCGAYTYSTSWVFGGGTKLTVLG
notes: Human Fab from the HuCAL library
On to B3, for which, in experiment [1], the “EC50 Conc. (ug/ml) for human plasma (inhibition of fibrin clot formation, murine brain extracts as source of mTF)” value stood at 0.82 µg/mL. In addition, the midpoint of the response in experiment [2], the EC50, lay at 4.35 nM.

B4: PHD126 Fab (Fab, V domains shown)
VH: QVQLVQSGAEVKKPGESLKISCKGSYSFSNYWIGWVRQMPGKGLEWMGFIDPDDSDTNYSPSFQGQVTISADKSISTAYLQWSSLKASDTAMYYCARALYMQGGSFDSWGQGTLVTVSS
VL: DIELTQPPSVSVAPGQTARISCSGDNLGSYYVSWYQQKPGQAPVLVIYRDTDRPSGIPERFSGSNSGNTATLTISGTQAEDEADYYCQSYDYGVSNQVFGGGTKLTVLG
Turning to B4, the “EC50 Conc. (ug/ml) for human plasma (inhibition of fibrin clot formation, murine brain extracts as source of mTF)” value in experiment [1] stood at 0.23 µg/mL.

These data come from patent US20060039900A1 (Janssen / Centocor, published 2006).
